Data: the supplement of paper PMC12764529

Assay: folding stability dG unfold (combined trypsin and chymotrypsin); higher = more stable
Method: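 Folding stability of de novo designed mini-proteins (<80 aa, no Cys; designed by TrROS, TrMRF, ProteinMPNN and the joint model) was measured by cDNA display proteolysis with trypsin and chymotrypsin. Each protease was used at 11 concentrations in a threefold dilution series plus a no-protease condition. K50 was inferred by Bayesian fitting of sequencing counts, and dG unfold was derived against a sequence-predicted unfolded-state K50 (Tsuboyama et al. method). Sequences shown include variable-length N-terminal GS-type padding (SAGGSAGG...) inside a display construct carrying a PA tag. Rows were kept only if the AF2 dimer inter-PAE was >15, to exclude likely homo-oligomers.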

Row | Sequence | folding stability dG unfold [kcal/mol]
1 | SAGGSAGGSAGGSMLLTSQLLREFPNGEVRLETEVVELELPDEPLPLPKPKPRRDPEGRLVSAGGSAGGSAG [r3_252_JUSTAS] | < -1
2 | SAGGMPPSFVVEEEKTVEGTSTVTLRKITNPSSSEDMLSEIVTPPDGSVTLILKKDNIIEVIPSSELSAGGS [r16_49_JUSTAS] | < -1
3 | SAGGSAGGSANVEVHPNPDGHVMVKIEMRMYRYDPDGKPKGPVEIKRSIHVDSPEEAKEFFSAGGSAGGSAG [r3_232_TrROS] | < -1
4 | SAGGSAGGSAGGALLLFEEGRRLRYETPEEAEELAAAVRAESGRPDLRISLRELSPEELPSAGGSAGGSAGG [r7_839_JUSTAS] | < -1
5 | SAGGMSPDATITENLVTDSEEEALAKLLADPSVAEVKPLGVKPDKTKEGKPVIIVPVELRIPADGVRLSAGG [r19_221_JUSTAS] | < -1
6 | SAGGSAYITIDDIKKLGPNMPIMVEPPKGRLMIFSPNQMVKITIDPDDDTIKVKEVFDSPEAMEKLSAGGSA [r15_6_TrROS] | < -1
7 | SAGGSAGGSAGGGYRLVTTTERRTLVYREYDPTTDRFRPVKPVPTTIETTLLAPEDELLSAGGSAGGSAGGS [r10_610_JUSTAS] | < -1
8 | SAGGGMNEPVPKVTVTTTSVSVEPPPDLPGIAKVYTPTVITTDDEAVAEAIAEEIAAQPDVEYEDTGASAGG [r13_606_JUSTAS] | < -1
9 | SAGGSAGGSDINVRVIELPDEDGTPYLLLEADNPEGLSDEIAAAFPPDWDVRTDDDRVWVLRRSAGGSAGGS [r20_189_TrMRF] | < -1
10 | SAGGSAGGSAGGSMKILYKLKNDNKVITSLEELKKEIESGKKVTIEEVKEIEESPDVPLSAGGSAGGSAGGS [r4_479_JUSTAS] | < -1
11 | SAGGSAGGIKPGQRVRVKLEQWSPNGEPQKHTFPIKNIPPGFKPGQELTFPGPGHKWRIDEITRSAGGSAGG [r6_561_TrROS] | < -1
12 | SSVSFDPATGTTTVTTTTPTGPDSPVLTTTTTTLTTNPDGTVTTTTTTTTTTVAPAAPLLTPANLALRAALS [r1_4_JUSTAS] | < -1
13 | SAGGSAGGSAGERYYMVEIQPKNGRRIKIMIPDDPEKAVKKARELFPDYEVEVEPMKKPPSAGGSAGGSAGG [r11_850_TrROS] | < -1
14 | SPAIVLATSDPSTRRRTVFVAQSHPPGPAVPDLGFDIPIGDNLYLGASISVSPSGPVNIDSIIVGPPDSLSA [r9_780_TrMRF] | < -1
15 | SAGGSAGGPRRISLMYKFSPDDGEMEPPSIEDLAKKFFPGAEPKNIDIEHNPNNGYMQVEIPIKSAGGSAGG [r6_81_TrROS] | < -1
16 | SAGIRFRPGARIEWQNPDNGKKVEIRMREIRDRIQEINGNENPEQITAEQIQEWAREHGFRPIKIEPPSAGG [r19_67_TrROS] | < -1
17 | SAGGSAGGSAGMPVTESTVTTPTGGLRVTYFPGTNLIELLPVEDGEPRPRLFNSEEALERLSAGGSAGGSAG [r3_426_JUSTAS] | < -1
18 | SAGGGSKIIEVPVIVEPDEDLGKVAEEIAKKIFPENEKVIVKVEKFENSYRIEIFNPEDGKPIIEGEGSAGG [r13_724_TrMRF] | < -1
19 | SAGGSAGGSAGKMVEVRIEVDVPDADGRPVRVTFTAPLPLHPDGRIDVPAGRVRRVEVRGSAGGSAGGSAGG [r11_664_TrMRF] | < -1

Row | Sequence | folding stability dG unfold [kcal/mol]
20 | SAGGSAGGSGAFTADNDGGKVYSARLVPLPPGDRPVAVGLDVPVDKPVLVAVLPDRTVVVPLGSAGGSAGGS [r12_994_TrMRF] | < -1
21 | SAGGPKIEVDVKHQRTPDGMYRMRVTAVVPGNGRKIKITMPMPPDDPSPMPKMAKSIAKELANDPGLKSAGG [r13_968_TrROS] | < -1
22 | SAGGSAGGSAGGSPQIKVEYERNGGYYPVKISIPNGRKVEIPNMPVENAEKMAKEFLKKSAGGSAGGSAGGS [r4_383_TrROS] | < -1
23 | SAGGSAGGSAGGPPPSLPYELDKKVIEKLVKYPEDKLKPVEIKEIETSLFNPLTGTWLDSAGGSAGGSAGGS [r10_248_JUSTAS] | < -1
24 | SAGGMVLSDVLPDGTVKPVSEEKIKEIVEKIEKEINAKIEVKIEKKWEGDKWVTTIPVTLIGLSPKLISAGG [r13_790_JUSTAS] | < -1
25 | SAGGMTIDSPEEAVQAIEDNPDKPLTLLVPTDPSTGSVPEEVVQAFAEPGFPISRDPAGYWTITYPPSAGGS [r16_335_JUSTAS] | < -1
26 | SAGGSAGGSAGNMEPVPTFELPHDDGRPFTIEVYKDPPMIRVEFPGKPRTMPAEEIKKLISAGGSAGGSAGG [r11_370_TrROS] | < -1
27 | SAGGSAGGSAGMTVKEFTTEEEAKEAIEKAPKDVPLLLILKKPESEEEKVILYTGDKVIEEESAGGSAGGSA [r18_407_JUSTAS] | < -1
28 | SAGGSAGGSAGGKKIKIVKVEPGKVKFSLGKKGKNIPGFEKEVKVEVYEIETDLEPLLNSAGGSAGGSAGGS [r10_654_TrMRF] | < -1
29 | SAGGPMPPGQPVNIHIEIENPNGNERTIPVPGPVGDPDWFKEIAEKLKEEGWKIKKIHPGNGVIEIKSAGGS [r8_497_TrROS] | < -1
30 | SAGGSAGGMPPDTYVTEVVTTTSNVLGGKDIFRTIVKTTKILPVIEHPAGDGFTLVPPDTPGLESAGGSAGG [r6_405_JUSTAS] | < -1
31 | SAGGSAGGSAGGSMTVTVEPVPNSDKLRVTTTTTFLNPSNGQVTSTSTSTTVVPPGVAPSAGGSAGGSAGGS [r10_86_JUSTAS] | < -1
32 | SAGQIRIEIEPNPNGKPKIRITMHNPDGPPREREIPIDPGETVSDIADEFFENGMPIRPGSTIEDLIESAGG [r19_263_TrROS] | < -1
33 | SAGGSAGGSGMTVEERTSPDGTRVEVYLGPGSVVREESPEGVVTVRTLTDGRVEREEVVPVPASAGGSAGGS [r12_451_JUSTAS] | < -1
34 | SSFKLYKRPDGSPYLTAPVPEKNLKSALDPSTGVPYIATTPGGELGALSLLADSLEELLKLPPLTFTKPGSA [r9_205_JUSTAS] | < -1
35 | SKVDIDVERDPGNGHYEYTVRNPNNGYDIKVRIADMDPEHGPIQVEIEPLDDGKKVHYPMPWDDIKDLIKSA [r9_1221_TrROS] | < -1
36 | SAGGSAGGSAPNQRREVPFYIYFPDDGKMFPFKQEKDPDPPKLKLKLPPEDFPPIEIMPGGSAGGSAGGSAG [r3_454_TrROS] | < -1
37 | SARYKRNPDGKPRREEPVPPKPPTIEIPIPFNMPPDDPEMMKRFAEMIADMLADEHGLPPNVPIHISMNSAG [r14_453_TrROS] | < -1
38 | SAGGSAGGSAKKIEIEPMPNGWTVRIKGNDGKKREIPIPNPNQSISDIAKRAEDNGIDDVEISAGGSAGGSA [r18_83_TrROS] | < -1

Row | Sequence | folding stability dG unfold [kcal/mol]
39 | SAGGSAGGSAGTTLLETEELPGPVRVTVERYKLPDGTLRVRTTEIDPSTGARHPREELVESAGGSAGGSAGG [r11_727_JUSTAS] | < -1
40 | SAGGSAGGSAGGRVKKDVTVRYRLTVRNPVTGKTTERTLTVHVPVLVDEEAELPPLSEVSAGGSAGGSAGGS [r10_1026_TrMRF] | < -1
41 | SAGGSAGGSAGGSMKIYVTSPEEAKKEKEKILEELKKTNIPPKVKVEVKVIPKSEIPLESAGGSAGGSAGGS [r4_472_JUSTAS] | < -1
42 | SAMPPGAIVKVKIISKERRIDNELGVEVVGYTEKEEDVKVLEVKEPGEKVELKLEIPNLPEGSELELGFSAG [r14_412_TrMRF] | < -1
43 | SAGGSAGGSAVVTLPDGRLLITEKVEEEVVFPDRDRTSKRVTTKTTLIDPATGTVLPASLLSAGGSAGGSAG [r3_394_JUSTAS] | < -1
44 | SAGSATFTRATTPLPEVTLSWEELEELVKDPNIDSISVHSPTADRTLPAPEGKITGPLAPDQTVTLVGSAGG [r19_152_JUSTAS] | < -1
45 | SAGGSAGGSADPQKVKEIAEKLQEKGYTVDVDRGPDSWTIRVENPKSGGKKKHKIDDPEDVLSAGGSAGGSA [r18_278_TrROS] | < -1
46 | SAGGMKAEIVNPNLSPEELKELILKAPEAKDVDIEVKKTSAKGAVSAKITTKSEKEAETIKKAVEEAVSAGG [r13_580_JUSTAS] | < -1
47 | SAGGSAGGSLSLSSNPLVTDPETGEVVYPAVADPVGIATAQWPDSTSYTPMPPNVTRVVRPGEASAGGSAGG [r6_627_JUSTAS] | < -1
48 | SAGGSPPVPDDETVEIEVPDYKITFHPATQEVTVQTNDPAKAKAVIEALPYPIPYKNIKIVPPEKLSAGGSA [r2_418_JUSTAS] | < -1
49 | SAGGSAGGSKDILANFPPGWKIEEEPNPNGMTRIDIKNPNGNEHRMEFPVNGKPIKFTIKPPESAGGSAGGS [r20_50_TrROS] | < -1
50 | SAGGSAPKRRIEIYPNPNGMYRIKVSNPDGKKREHTIDGPGMPLEQLANKLNIPPGFKIDEIEPYPSAGGSA [r15_167_TrROS] | < -1
51 | SAGGSAGGSAGGSELVGPEKAKEIIKEAYEKGYEEIPILLHLPNGETEEKIIKVPKNKISAGGSAGGSAGGS [r4_342_TrMRF] | < -1
52 | SAGGEKVPLKIRDPDNGNPHEFDKIESIDSVEMQKPPDNRQQYSIRFPGDGRPIMIDDPEDIEEALKSAGGS [r8_206_TrROS] | < -1
53 | SAGGSAGGSAGGADVPVAELEARGLGREALIAELGEDVTVTTEEHAPGAPVYRLTPLASSAGGSAGGSAGGS [r10_855_JUSTAS] | < -1
54 | SAGGDKKKKEVEFRFPGMPFRVSIQVDPDEGKIPIEIYNPDNGQSLDDLKSNPAMQQMVREAANALKSAGGS [r16_96_TrROS] | < -1
55 | SAGGMVVEEEPTKTVVEEVVPLPGGSPVRRITEEVLLPDGSVASRTTVFRPPGEREEETSLDPVPPEASAGG [r13_21_JUSTAS] | < -1
56 | SAGGSAGGSPVDEIIEEIKKKGYKANVKSVSVSPNSKGELEIELEINIEKPEPKGTEENIKKKSAGGSAGGS [r12_120_JUSTAS] | < -1
57 | SAGGSAGGSAGGQIRDPDGRKWIRVKGASPNKIKDELSELNPNVEIITNPDPNEMWIRIPSAGGSAGGSAGG [r7_370_TrROS] | < -1
